The results in this text go back to publication doi:10.1101/2025.07.23.666269 (bioRxiv, 2025).

The Kd is the free concentration of one partner at which half of the binding sites on the other are occupied at equilibrium, for simple one-to-one binding. A word on the stoichiometry N: it is a count of units in the complex or per binding partner.

The target in data set [1] is recombinant ɸ6 protein P2 (cystovirus ɸ6) (UniProt P11124). The data set is described as follows: MST.
In data set [2] the target is RNA-dependent RNA polymerase P2 of cystovirus ɸ6 (in virion-derived particles) (cystovirus ɸ6) (UniProt P11124). The data set is described as follows: cryo-EM structure.
Data set [3] addresses minor protein P7 of cystovirus ɸ6 (in virion-derived particles) (cystovirus ɸ6). Briefly: cryo-EM structure.
Data set [4] has as its target recombinant ɸ6 protein P2 (cystovirus ɸ6) (UniProt P11124). Briefly: asymmetric flow field flow fractionation.
The target of data set [5] is recombinant ɸ6 protein P7, full length (cystovirus ɸ6). Briefly: asymmetric flow field flow fractionation.
The target in data set [6] is T1, recombinant ɸ6 protein P1 (cystovirus ɸ6, UniProt P11126 1-769).
T1 sequence (looked up): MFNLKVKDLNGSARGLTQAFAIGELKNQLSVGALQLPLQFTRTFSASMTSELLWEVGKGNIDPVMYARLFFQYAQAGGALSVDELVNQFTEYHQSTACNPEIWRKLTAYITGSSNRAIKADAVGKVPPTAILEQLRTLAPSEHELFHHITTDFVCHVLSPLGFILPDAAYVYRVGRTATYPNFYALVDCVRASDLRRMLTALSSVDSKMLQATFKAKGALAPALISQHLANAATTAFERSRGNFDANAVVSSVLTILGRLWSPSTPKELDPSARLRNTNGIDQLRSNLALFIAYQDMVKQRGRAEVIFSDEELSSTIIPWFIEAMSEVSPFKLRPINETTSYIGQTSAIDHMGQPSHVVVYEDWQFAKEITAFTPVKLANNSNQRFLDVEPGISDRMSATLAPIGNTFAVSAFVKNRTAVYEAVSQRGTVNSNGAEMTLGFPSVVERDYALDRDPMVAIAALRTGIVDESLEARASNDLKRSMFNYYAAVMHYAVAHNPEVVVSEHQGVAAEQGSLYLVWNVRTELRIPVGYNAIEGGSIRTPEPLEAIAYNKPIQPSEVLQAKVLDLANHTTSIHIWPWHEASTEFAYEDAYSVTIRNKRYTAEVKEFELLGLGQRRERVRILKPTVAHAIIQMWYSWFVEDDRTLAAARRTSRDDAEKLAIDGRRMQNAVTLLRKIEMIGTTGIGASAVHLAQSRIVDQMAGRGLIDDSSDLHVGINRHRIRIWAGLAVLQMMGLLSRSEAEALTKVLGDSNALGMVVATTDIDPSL
Briefly: co-sedimentation.

The data set “cryo-EM structure” concerns the molecule itself. The data set is described as follows: cryo-EM structure.

On to “C-terminally truncated P7 comprising residues 2–115 (domain or fragment)”, for which the Kd in data set [1] stood at 15.1 µM.
In turn, “minor protein P7 of cystovirus ɸ6 (in virion-derived particles) (natural protein)” showed a stoichiometry N (P7 dimers per P2) in data set [2] of 4. The molecule further had a stoichiometry N in data set [3] of 4.
For “recombinant ɸ6 protein P7, full length (natural protein)”, the Kd in data set [1] is 1.3 µM. Further, in data set [4], the stoichiometry N (P7 dimer per P2 monomer) is 1. Further, the stoichiometry N in data set [5] was determined as 2.

B1: recombinant ɸ6 protein P2 (enzyme, cystovirus ɸ6)
chain: PRRAPAFPLSDIKAQMLFANNIKAQQASKRSFKEGAIETYEGLLSVDPRFLSFKNELSRYLTDHFPANVDEYGRVYGNGVRTNFFGMRHMNGFPMIPATWPLASNLKKRADADLADGPVSERDNLLFRAAVRLMFSDLEPVPLKIRKGSSTCIPYFSNDMGTKIEIAERALEKAEEAGNLMLQGKFDDAYQLHQMGGAYYVVYRAQSTDAITLDPKTGKFVSKDRMVADFEYAVTGGEQGSLFAASKDASRLKEQYGIDVPDGFFCERRRTAMGGPFALNAPIMAVAQPVRNKIYSKYAYTFHHTTRLNKEEKVKEWSLCVATDVSDHDTFWPGWLRDLICDELLNMGYAPWWVKLFETSLKLPVYVGAPAPEQGHTLLGDPSNPDLEVGLSSGQGATDLMGTLLMSITYLVMQLDHTAPHLNSRIKDMPSACRFLDSYWQGHEEIRQISKSDDAILGWTKGRALVGGHRLFEMLKEGKVNPSPYMKISYEHGGAFLGDILLYDSRREPGSAIFVGNINSMLNNQFSPEYGVQSGVRDRSKRKRPFPGLAWASMKDTYGACPIYSDVLEAIERCWWNAFGESYRAYREDMLKRDTLELSRYVASMARQAGLAELTPIDLEVLADPNKLQYKWTEADVSANIHEVLMHGVSVEKTERFLRSVMPR
modifications: RED fluorescent dye NT-647-NHS (Monolith Protein Labeling Kit RED-NHS), in the MST only
Regarding B1, the binding result in data set [6] was “binds”.

B2: outer layer protein P8 of cystovirus ɸ6 (in virion-derived particles) (natural protein)
chain: MLLPVVARAAVPAIESAIAATPGLVSRIAAAIGSKVSPSAILAAVKSNPVVAGLTLAQIGSTGYDAYQQLLENHPEVAEMLKDLSFKADEIQPDFIGNLGQYREELELVEDAARFVGGMSNLIRLRQALELDIKYYGLKMQLNDMGYRS
For the molecule B2, the “stoichiometry N” value in “cryo-EM structure” stood at 3.

B3: major capsid protein P1 of cystovirus ɸ6 (in virion-derived particles) (natural protein)
chain: MFNLKVKDLNGSARGLTQAFAIGELKNQLSVGALQLPLQFTRTFSASMTSELLWEVGKGNIDPVMYARLFFQYAQAGGALSVDELVNQFTEYHQSTACNPEIWRKLTAYITGSSNRAIKADAVGKVPPTAILEQLRTLAPSEHELFHHITTDFVCHVLSPLGFILPDAAYVYRVGRTATYPNFYALVDCVRASDLRRMLTALSSVDSKMLQATFKAKGALAPALISQHLANAATTAFERSRGNFDANAVVSSVLTILGRLWSPSTPKELDPSARLRNTNGIDQLRSNLALFIAYQDMVKQRGRAEVIFSDEELSSTIIPWFIEAMSEVSPFKLRPINETTSYIGQTSAIDHMGQPSHVVVYEDWQFAKEITAFTPVKLANNSNQRFLDVEPGISDRMSATLAPIGNTFAVSAFVKNRTAVYEAVSQRGTVNSNGAEMTLGFPSVVERDYALDRDPMVAIAALRTGIVDESLEARASNDLKRSMFNYYAAVMHYAVAHNPEVVVSEHQGVAAEQGSLYLVWNVRTELRIPVGYNAIEGGSIRTPEPLEAIAYNKPIQPSEVLQAKVLDLANHTTSIHIWPWHEASTEFAYEDAYSVTIRNKRYTAEVKEFELLGLGQRRERVRILKPTVAHAIIQMWYSWFVEDDRTLAAARRTSRDDAEKLAIDGRRMQNAVTLLRKIEMIGTTGIGASAVHLAQSRIVDQMAGRGLIDDSSDLHVGINRHRIRIWAGLAVLQMMGLLSRSEAEALTKVLGDSNALGMVVATTDIDPSL
For the molecule B3, the “stoichiometry N” value in the data set “cryo-EM structure” was 2.

B4: packaging NTPase P4 of cystovirus ɸ6 (in virion-derived particles) (enzyme, UniProt P11125 2-332, looked up)
chain: PIVVTQAHIDRVGIAADLLDASPVSLQVLGRPTAINTVVIKTYIAAVMELASKQGGSLAGVDIRPSVLLKDTAIFTKPKAKSADVESDVDVLDTGIYSVPGLARKPVTHRWPSEGIYSGVTALMGATGSGKSITLNEKLRPDVLIRWGEVAEAYDELDTAVHISTLDEMLIVCIGLGALGFNVAVDSVRPLLFRLKGAASAGGIVAVFYSLLTDISNLFTQYDCSVVMVVNPMVDAEKIEYVFGQVMASTVGAILCADGNVSRTMFRTNKGRIFNGAAPLAADTHMPSMDRPTSMKALDHTSIASVAPLERGSVDTDDRNSAPRRGANFSL
As to B4, the “stoichiometry N” value in “cryo-EM structure” was determined as 6.
